{
  "source": "paper PMC9651861",
  "about": "(2022)",
  "key": {"human serum albumin [1]": {"target": "T1, human serum albumin (human, UniProt P02768 25-609)", "assay": "BLI"}, "human serum albumin [2]": {"target": "T1, human serum albumin", "assay": "BLI", "remark": "listed apart in the source"}, "human serum albumin [3]": {"target": "T1, human serum albumin", "assay": "MST"}},
  "data": [
    {"binder": "Nb.B201 (VHH) VHH: QVQLQESGGGLVQAGGSLRLSCAASGYISDAYYMGWYRQAPGKEREFVATITHGTNTYYADSVKGRFTISRDNAKNTVYLQMNSLKPEDTAVYYCAVLETRSYSFRYWGQGTQVTVSS", "values": [
      {"measurement": "Kd", "setting": "human serum albumin [1]", "result": "~370", "unit": "nM"}
    ]},
    {"binder": "DesAb-HSA-P2 (VHH) VHH: EVQLEESGGGLVQPGGSLRLSCAASGFNIKDTYIGWVRQAPGKGEEWVASIYPTSGYTRYADSVKGRFTISADTSKNTAYLQMNSLRAEDTAVYYCAAGSAQAGNAEEAEEEFDYWGQGTLVTVSS", "values": [
      {"measurement": "Kd", "setting": "human serum albumin [2]", "result": 412, "unit": "nM"}
    ]},
    {"binder": "DesAb-HSA-P1, C-terminal cysteine variant labelled with Alexa Fluor 647 (VHH, Alexa Fluor 647 (maleimide) on the free C-terminal cysteine of the Asp-Cys-Glu motif) VHH: EVQLEESGGGLVQPGGSLRLSCAASGFNIKDTYIGWVRQAPGKGEEWVASIYPTSGYTRYADSVKGRFTISADTSKNTAYLQMNSLRAEDTAVYYCAAGSIQKSLQTAESILEEFDYWGQGTLVTVSS", "values": [
      {"measurement": "Kd", "setting": "human serum albumin [3]", "result": 140, "unit": "nM"}
    ]},
    {"binder": "DesAb-HSA-D3, C-terminal cysteine variant labelled with Alexa Fluor 647 (VHH, Alexa Fluor 647 (maleimide) on the free C-terminal cysteine of the Asp-Cys-Glu motif) VHH: EVQLQESGGGLVQAGGSLRLSCAASGELYALISMGWFRQAPGKEREFVAAISRNGDNTYYTDSVKGRFTISRDNAKNTVELQMNSLKPEDTAVYYCAADKFASPDGSVTIMTNEYDYWGQGTQVTVSD", "values": [
      {"measurement": "Kd", "setting": "human serum albumin [3]", "result": 146, "unit": "nM"}
    ]},
    {"binder": "DesAb-HSA-D3 (VHH) VHH: EVQLQESGGGLVQAGGSLRLSCAASGELYALISMGWFRQAPGKEREFVAAISRNGDNTYYTDSVKGRFTISRDNAKNTVELQMNSLKPEDTAVYYCAADKFASPDGSVTIMTNEYDYWGQGTQVTVSD", "values": [
      {"measurement": "Kd", "setting": "human serum albumin [2]", "result": 308, "unit": "nM"}
    ]},
    {"binder": "DesAb-HSA-P2, C-terminal cysteine variant labelled with Alexa Fluor 647 (VHH, Alexa Fluor 647 (maleimide) on the free C-terminal cysteine of the Asp-Cys-Glu motif) VHH: EVQLEESGGGLVQPGGSLRLSCAASGFNIKDTYIGWVRQAPGKGEEWVASIYPTSGYTRYADSVKGRFTISADTSKNTAYLQMNSLRAEDTAVYYCAAGSAQAGNAEEAEEEFDYWGQGTLVTVSS", "values": [
      {"measurement": "Kd", "setting": "human serum albumin [3]", "result": 810, "unit": "nM"}
    ]},
    {"binder": "DesAb-HSA-P1 (VHH) VHH: EVQLEESGGGLVQPGGSLRLSCAASGFNIKDTYIGWVRQAPGKGEEWVASIYPTSGYTRYADSVKGRFTISADTSKNTAYLQMNSLRAEDTAVYYCAAGSIQKSLQTAESILEEFDYWGQGTLVTVSS", "values": [
      {"measurement": "Kd", "setting": "human serum albumin [2]", "result": 279, "unit": "nM"}
    ]}
  ]
}
